Values quoted from earlier work as cited in paper PMC2827818.

Biological target: IFNalpha2 (Homo sapiens) (UniProt P01563)

Kd: 10 nM
Substance: IFNAR2 ECD (from UniProt P48551)
